This note sets out measurements from the nanobody polyreactivity screen of Harvey et al. (2022).

A short description of the data set: yeast display, Sf9 membrane polyspecificity reagent, FACS + sequencing; frameworks hold sequencing errors. The essentials:
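In a synthetic yeast display library (Saccharomyces cerevisiae BJ5465), nanobody expression was induced with galactose for 36–48 hours. FACS gates were set low and high (top ~1%) using anti-HA fluorescence for expression and streptavidin fluorescence for binding of the Sf9 membrane reagent. Each polyreactivity label is drawn from the gate of origin.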
For “QVQLVESGGGLVQAGRSLRLSCAASGRIFAQNAMGWYRQAPGKERELVAAISWGGGGTYYADSVKGRFTISRDNAKNTVYLQMNSLKPEDTAVYYCAADSPGFGAWDRYEYWGQGTQVTVSS”, the “polyreactivity (PSR sort gate)” value was “low polyreactivity”.

In the case of “QVQLVESGGGLVQAGRSLRLSCAASGRIFCYYAMGWYRQAPGKERELVAAITRGGSTYYADSVKGRFTISRDNAKNTVYLQMNSLKPEDTAVYYCAATISGLVKYENDYWGQGTQVTVSS”, the “polyreactivity (PSR sort gate)” value is on record as “low polyreactivity”.

“QVQLVESGGGLVQAGRSLRLSCAASGRIFGPYTMGWYRQAPGKEREFVAAITRRGGSTYYADSVKGRFTISRDNAKNTGYLQRHSLKPEDTAVYYCAAVGQKRSLGYSWGQGTQVTVSS”: the “polyreactivity (PSR sort gate)” value is recorded as “low polyreactivity”.

“QVQLVESGGGLVQAGRSLRLSCAASGRIFPRNVMGWYRQAPGKERELVAAISSRGTRTYYADSVKGRFTISRDNAKNSVYLQLYSLKPEDTAVYYCAADGPYEGYDYWGQGTQVTVSS”: the “polyreactivity (PSR sort gate)” value was “high polyreactivity”.

“QVQLVESGGGLVQAGRSLRLSCAASGRIIYGYPMGWYRQAPGIERELVAAITATYYADSVKGRFTISRDNAKNTVYLQMNSLKPEDTAVYYCNAYLSPKQPLSPPDPTFEGGYWGQGTQVTVST”: the “polyreactivity (PSR sort gate)” value is on record as “low polyreactivity”.

Consider “QVQLVESGGGLVQAGRSLRLSCAASGRTFARYAMGGYRQAPGKERELVAAINSGGSTNYADSVKGRFTISRDNAKNTDYLQMNSLKPEDTAVYYCAADSYWKWYIAYPYYWGQGTQVTVSS”, for which the “polyreactivity (PSR sort gate)” value is listed as “high polyreactivity”.

As for “QVQLVESGGGLVQAGRSLRLSCAASGRTFGANAMGWYRQAPGKERELVAAISYHGTRTYYADSVKGRFTISRDNAKNTVYLQMNSLKPEDTAVYYCAAVGKPGVYQEGDYWGQGTQVTVSS”, the “polyreactivity (PSR sort gate)” value is recorded as “high polyreactivity”.

On to “QVQLVESGGGLVQAGRSLRLSCAASGRTFGTNAMGWYRQAPGKERELVAAISRRGGSTYYADSVKGRFTISRDNAKNTVYLQMNCLKPEDTAVYYCASDFWYYQYPYGGGGYWGQGTQVTVSS”, for which the “polyreactivity (PSR sort gate)” value is on record as “low polyreactivity”.

Take “QVQLVESGGGLVQAGRSLRLSCAASGRTFPPYDMGWYRQAPGKERELVAAITSDGSTSYADSVKGRFTISRDNAKNTVYLQMNRLKPEDTAVYYCNAEYGYSFGYGYYWWFDYWGQGTQVTVSA”: the “polyreactivity (PSR sort gate)” value is recorded as “high polyreactivity”.

As to “QVQLVESGGGLVQAGRSLRLSCAASGRTFPYYAMGWYRQAHGKEREFVAAISRRGASTYYADSVKGRFTISRDNAKNTVNLQMNSLKPEDTAVYYCNAVYRCYYSGELDYWGQGTQVTVSS”, the “polyreactivity (PSR sort gate)” value was “high polyreactivity”.

Take “QVQLVESGGGLVQAGRSLRLSCAASGRTFSVNAMGCYRQAPVKERELVAAISWDGGSTYYADSVKGRFTISRDNAKNTVYLQMISLKPEDTSVYDCNKDLYYAYDYWGQGSQVTVSS”: the “polyreactivity (PSR sort gate)” value is given as “low polyreactivity”.

For “QVQLVESGGGLVQAGRSLRLSCAASGSIFEYYAMGWSRQAPGKEWELVAAITESGGSTYYADSVKGRFHNFTRQCEEYRLFTDEQPETGRYRGLLLAADAESYQNDYALDYWGQGTQETVSS”, the “polyreactivity (PSR sort gate)” value was “low polyreactivity”.

Consider “QVQLVESGGGLVQAGRSLRLSCAASGSIFGWNAMGWYRQAPGKERELVAAINGGDRTNYADSVKGRFTISRDNAKNTVYLQMNSLNTEDTAVYYCGKDFYPTRPGWGGGEYNYWGQGTQVTVSS”, for which the “polyreactivity (PSR sort gate)” value is “low polyreactivity”.

For “QVQLVESGGGLVQAGRSLRLSCAASGSIFTHNAMGWYRQAPGKERELVASITSRGGITYYADSVKGRFTISRDNAKNTVYLQMNSLKPEDTAVYYCAADLYIYPYDYWGQGTQVTVSS”, the “polyreactivity (PSR sort gate)” value is “low polyreactivity”.

Take “QVQLVESGGGLVQAGRSLRLSCAASGYIIYPNAMGWYRQAPGKERELVAAITSGGSTTYADSVKGRFTISRDNAKNTVYVQMNCLKPEDSAVYYCAARFVLWSRTYYSWGQGTQVTVSS”: the “polyreactivity (PSR sort gate)” value is recorded as “high polyreactivity”.

As for “QVQLVESGGGLVQAGRSLRLSCASSGSTFRVYDMGWYRQAPGNERELVASISYSVGSTYYADSVKGRFTISRDNAKNTVYLQMITLKPEDTEVYFCAARPSYQPSSLARYDYWGQGTQVSVSS”, the “polyreactivity (PSR sort gate)” value is listed as “low polyreactivity”.

For the sequence “QVQLVESGGGLVQAGRSLRLSCASSGSTIVNYAMGWYRQAPGKEMELVAAISRSGGRTYYADSVKGRFTISRDNAKNTVYLQMNSLKPEDTAVYYCARLLLSPEYGYWGQGTQVTVSS”, the “polyreactivity (PSR sort gate)” value is on record as “high polyreactivity”.

As to “QVQLVESGGGLVQAGRTLRLSCAASGFTFGRYAMGWYRQAPGKERELVAAISRNGGRTYYADSVKGRFTISRDNAMNTVYFQMNSLKPEDTAVYNCAADGYERKTAQYDYWGQGTQVTVSS”, the “polyreactivity (PSR sort gate)” value is “high polyreactivity”.

With “QVQLVESGGGLVQAGSSLRLSCAASGRTFGGYVMGWYRQAPGKERELVAAISSSAGSTYYADSVKGRFTISRDNAKNTVYLQMNSLKPEDTAVYYCAKRSYNPYDHYYRYQYGYWGQGTQVTVSS”, the “polyreactivity (PSR sort gate)” value was “high polyreactivity”.

On to “QVQLVESGGGLVQAGVILRLSCAASGSTFSLYAMGWYRKPPGKERELVAAISWSDGSTYYADSVKGRFTISRDNAKITVYLQMNSLKAEDTAVSYFANASSFAYYRFGYWGQVTQVTVSS”, for which the “polyreactivity (PSR sort gate)” value is “low polyreactivity”.

Consider “QVQLVESGGGLVQAGVILRLSCAASGSTIGVNAMGWYRQPPAKERELVAAISLGGGRTYYADSVKGRFTISRDNAKNTVNLQMNCLKPEDTAVYYCNTDFGARMGYWGQGTQVTVSS”, for which the “polyreactivity (PSR sort gate)” value is listed as “high polyreactivity”.

Turning to “QVQLVESGGGLVQAGVRLRLSFAASGFTFRLYTMGWYRQAPGKERELVAAITYSGDSTYYADSVKGRFTISRDNAKNTVYLQMNSLKPEDTAVYYCAARKYYARYYWGQGTQVTVSS”, the “polyreactivity (PSR sort gate)” value is reported as “high polyreactivity”.

For “QVQLVESGGGLVQAGVSLRLRCASSGSIFRRNVMGWYRQAPGKERELVAAISWSGGRTYYADSVKGRFTISRDNAKNTVYLQMNSLKPEDTAVYYCAAENGYYAYDYWGQGTQVTVSS”, the “polyreactivity (PSR sort gate)” value is “high polyreactivity”.

As for “QVQLVESGGGLVQAGVSLRLSCAAAGITFGDYSMGWYRQEPGKEMELVAGIYWSGDGTSYADSVKGRFTISRDNAKNTVYLQMYRLKPEDTAVYYFAAYWYYYLMDYWGQGTQVSVSS”, the “polyreactivity (PSR sort gate)” value was “low polyreactivity”.

Take “QVQLVESGGGLVQAGVSLRLSCAASAFILEGYAMGWYTQAPGKERELVAAISDSGGSTYYADSVKGRFTISRDNAKNTVYLQMNSLKPEDTAVYYCATAYYWWTAYSYSYDHWGQGTQVTVSS”: the “polyreactivity (PSR sort gate)” value is “high polyreactivity”.

In the case of “QVQLVESGGGLVQAGVSLRLSCAASGFIFGLYVMGWYRQSPGKERELVAGITWTGGTTYYADSVKGRFTISRDNAKNTVYLQMNSLKPEDTAVYYCATRNYAVVPSVRREGYYWGQGTQVTVSS”, the “polyreactivity (PSR sort gate)” value is recorded as “low polyreactivity”.

Take “QVQLVESGGGLVQAGVSLRLSCAASGFIFSFNAMGWYRQAPGKERELVAAISRSGGSTRYADSVKGRFTISRDNAKNTVYLQMNCLKPEDTAVYYCNARSPYYSYLLHAYRLFDYWGQGTQVTVSS”: the “polyreactivity (PSR sort gate)” value was “high polyreactivity”.

Consider “QVQLVESGGGLVQAGVSLRLSCAASGFTFPWYAMGWYLQAPGKERELVAAISWTGGSTYYADSVKGRFTSSRDNPKNTVNLQMLSLKPEDTAVYYCAVGIYDHLYNHEYWGHGTQVTVSS”, for which the “polyreactivity (PSR sort gate)” value was “low polyreactivity”.

As to “QVQLVESGGGLVQAGVSLRLSCAASGGTFLVSAKGWYRQAPGKERQMVAAISVSGGSTYYADSVKGRFTISRDNAKNTVYLQMNSLKPEDTAVYYCAATYSHPFHTYVLRFFAYYYWGQGTQVTVSS”, the “polyreactivity (PSR sort gate)” value is on record as “high polyreactivity”.

As to “QVQLVESGGGLVQAGVSLRLSCAASGGTIVGNAMGWYRQAPGKERELVAAMSTNSGSTYYADSVKGRFTISRDNAKNTVYLQMNSLKPEDTAVYYFATRNSSKRRGYYYWGQGTQVTVSS”, the “polyreactivity (PSR sort gate)” value is “high polyreactivity”.

For “QVQLVESGGGLVQAGVSLRLSCAASGIIFRGNAMGWYRQAPGKERELVASICRRGGSTYYADSVKGRFTISRDNAKNTVYLQMNSLKPEDTAVYYCNAYGSTYVYGPYDYWGQGTQVTVSS”, the “polyreactivity (PSR sort gate)” value was “high polyreactivity”.

Regarding “QVQLVESGGGLVQAGVSLRLSCAASGIILRYYVMGWYRQAPGKERELVAAITSRGGSTYYADSVKGRFTISRDNAKNTVYLQMNSLKPEDTAVYYCAAGYRNVNTFDYWGQGTQVTVSS”, the “polyreactivity (PSR sort gate)” value is “high polyreactivity”.

For “QVQLVESGGGLVQAGVSLRLSCAASGNIFGVYTMGWYRQAPGQEREFVAAISDGGSTYYADSVKGRFTISRDNAKNTVYLQMIRLKPEDTAVYYCAALIYGPDRVVDEFVYWGQGTQVTVSS”, the “polyreactivity (PSR sort gate)” value is recorded as “low polyreactivity”.

For the sequence “QVQLVESGGGLVQAGVSLRLSCAASGNTFKYYPMGWYRQAPGKEWELVAGITGTGGRTNYADSVKGRFTISRDNAKNTVYLQMTSLKPEDTAVYYFAADYWWYTGYDYWGQGTQVTVSS”, the “polyreactivity (PSR sort gate)” value is given as “high polyreactivity”.

Regarding “QVQLVESGGGLVQAGVSLRLSCAASGRIFGYNDMGWYRQAPGKERELVAAINWTGGSTYYADSVKGRFTISRDNAKNTVYLQMNSLKPEDTAVYYCNADARTKWVQTHTDFITDYDYWGQGTQVTVSS”, the “polyreactivity (PSR sort gate)” value was “low polyreactivity”.

Take “QVQLVESGGGLVQAGVSLRLSCAASGRTFAYNDMGCYRQAPGKERELVAAISWSDGTTYYADSVKGRFTSSRDNAKNTVYLQMNSLKPEDTAVYYCAAESYPSEVASYVSEYDYWGQGTQVTVSS”: the “polyreactivity (PSR sort gate)” value is given as “low polyreactivity”.

As for “QVQLVESGGGLVQAGVSLRLSCAASGSIFVHYDMGWYRPAPGKERELVADIDYSGGSTYYADSVKGRFTISRDYAKNTVYLQMNSLKPEDTAVYDCAAERRRWGLDYYYWGQGTQVTVSS”, the “polyreactivity (PSR sort gate)” value is “high polyreactivity”.

For “QVQLVESGGGLVQAGVSLRLSCAASGSTFTANAMGWYRQAPGKERELVAAITNSDGSTYYADSVKGRFTISRDNAKNTVYLQINSLKPEDTAVYYCAKDYYACFWEMDYWGQGTQVTVSS”, the “polyreactivity (PSR sort gate)” value is listed as “low polyreactivity”.

Turning to “QVQLVESGGGLVQAGVSLRLSCAASGSTLVLNAMGWYRQAPGKERELDAAISRGGGSTSYADSVKGRFTISRDNAKNTVYLQMNSLKPEDTAVYYCNAYTYYHANHVQGFGYWGQGTQVTVSS”, the “polyreactivity (PSR sort gate)” value is “low polyreactivity”.

As for “QVQLVESGGGLVQAGVSLRLSCAASGSTSSRNAMGRYRQAPGKEWELVAAITSGTRTYYADSVKGRFTISRDNAKNTVYLQMNSLKPEDTAVYYCARGRVSRYTNTDYDYWGQGTQVTVSS”, the “polyreactivity (PSR sort gate)” value was “high polyreactivity”.
